Experimental data published in patent US12552837B2, “Bicyclic peptide ligands with detectable moieties and uses thereof” (BicycleRD Limited, priority 2017, dated 2026).
*1 amine or outer side, *2 acyl side, *3 side chain or, on linkers, in order; H or OH if unused. Where a SMILES comes first, the peptide text is derived from it. Bridges are numbered along the chain shown (N, C = ends). [ ]: non-standard residue; d: D form. The star is where a group is joined. DOTA = O=C(O)CN1CCN(CC(=O)O)CCN(CC(=O)*)CCN(CC(=O)O)CC1; 1Nal = N[C@@H](Cc1cccc2ccccc12)C(=O)O; TBMB = c1c(C[*:1])cc(C[*:3])cc1C[*:2]; Tle = CC(C)(C)[C@H](N)C(=O)O

Tested on: HT1080 tumor
Assay: Organ distribution of 177Lu-labelled peptides in HT1080 xenograft mice
Format: in vivo, BALB/c nu/nu mice
Conditions: 1 h post injection

For `C[C@H](NC(=O)CN1CCN(CC(=O)O)CCN(CC(=O)O)CCN(CC(=O)O)CC1)C(=O)N[C@H]1CSCc2cc3cc(c2)CSC[C@H](NC(=O)[C@@H](C)NC(=O)[C@H](Cc2cccc4ccccc24)NC(=O)[C@H](CCC(=O)O)NC(=O)[C@H](CC(N)=O)NC(=O)[C@@H](C)NC1=O)C(=O)N[C@@H](CCC(=O)O)C(=O)N[C@@H](CC(=O)O)C(=O)N[C@@H](Cc1ccccc1)C(=O)N[C@@H](Cc1ccc(O)cc1)C(=O)N[C@@H](CC(=O)O)C(=O)N[C@@H](C(C)(C)C)C(=O)N[C@H](C(N)=O)CSC3` [I-23] ({DOTA}-AC[dA]NE[1Nal][dA]CEDFYD[Tle]C-NH2; linker 2-8-15 via TBMB), the “blocking of tumor uptake at a dose of 500 pmoles” value was “slightly blocked”, the “blocking of tumor uptake using 5 nmoles” value was “nearly completely blocked” and the “tumor uptake compared to 17-69-07-N144” value was “significantly higher tumor uptake”.
